# According to US20230265179A1 (TWIST BIOSCIENCE, published 2023):
# Residue numbers refer to the chain shown, from its start.
# T1: CD40L over-expressed on Expi293 cells (UniProt P29965 1-261, limits assumed)
# T1 construct: whole, on cells; also called cytokine over-expressing Expi293 cells
# T1 sequence (looked up): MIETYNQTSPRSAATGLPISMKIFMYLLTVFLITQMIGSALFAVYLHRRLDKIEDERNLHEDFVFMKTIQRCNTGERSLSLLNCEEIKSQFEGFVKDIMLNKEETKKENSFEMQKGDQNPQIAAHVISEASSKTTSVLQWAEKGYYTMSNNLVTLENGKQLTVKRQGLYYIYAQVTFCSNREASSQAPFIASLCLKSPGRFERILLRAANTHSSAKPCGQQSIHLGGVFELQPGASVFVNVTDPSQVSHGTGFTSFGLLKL
# B1: CD40L-203 (antibody, V domains shown)
# VH: EVQLLESGGGLVQPGGSLRLSCAASGGYNFRDYMHWVRQAPGKGLEWVAEIRNKANNHATKYADSVKGRFTISRDNSKNTLYLQMNSLRAEDTAVYYCAKNLGQGFDYWGQGTLVTVSS
# VL: DIQMTQSPSSLSASVGDRVTITCRASQSISSYVNWYQQKPGKAPKLLIYANTNGPSGVPSRFSGSGSGTDFTLTISSLQPEDFATYYCQSYDNSVRGSRVFGQGTKVEIK
# notes: IgG2
# B2: CD40L-185 (antibody, V domains shown)
# VH: EVQLLESGGGLVQPGGSLRLSCAASGFDFSDYEMSWVRQAPGKGLEWVSSITSEGGSTYYADSVKGRFTISRDNSKNTLYLQMNSLRAEDTAVYYCAKPDQFLDYWGQGTLVTVSS
# VL: DIQMTQSPSSLSASVGDRVTITCRASQTIERRLNWYQQKPGKAPKLLIYGTTSLESGVPSRFSGSGSGTDFTLTISSLQPEDFATYYCHHWHHNPTHHETNVFGQGTKVEIK
# notes: IgG2
# B3: CD40L-202 (antibody, V domains shown)
# VH: B2 VH with D28T, S30A, D31S, S35T, Q101V, F102L, L103F
# VL: DIQMTQSPSSLSASVGDRVTITCRASQDIYQNLDWYQQKPGKAPKLLIYQDFKRPSGVPSRFSGSGSGTDFTLTISSLQPEDFATYYCQAWDNGAAVFGQGTKVEIK
# notes: IgG2
# B4: CD40L-194 (antibody, V domains shown)
# VH: B2 VH with D28T, S30E, Y32T, S35D, Q101V, F102L, L103F
# VL: DIQMTQSPSSLSASVGDRVTITCRASQNINYYLNWYQQKPGKAPKLLIYQNDKRPSGVPSRFSGSGSGTDFTLTISSLQPEDFATYYCQQSYENPLTFGQGTKVEIK
# notes: IgG2
# B5: CD40L-186 (antibody, V domains shown)
# VH: B2 VH with Q101V, F102L, L103F
# VL: DIQMTQSPSSLSASVGDRVTITCRASQGVRTSLAWYQQKPGKAPKLLIYENNNRPSGVPSRFSGSGSGTDFTLTISSLQPEDFATYYCSQSTHVPPTFGQGTKVEIK
# notes: IgG2
# B6: CD40L-201 (antibody, V domains shown)
# VH: B2 VH with D28T, S30A, D31S, S35T, Q101V, F102L, L103F
# VL: DIQMTQSPSSLSASVGDRVTITCSGDNLRGYYASWYQQKPGKAPKLLIYGTSDLQSGVPSRFSGSGSGTDFTLTISSLQPEDFATYYCQAWDTNTVIFGQGTKVEIK
# notes: IgG2
# B7: CD40L-197 (antibody, V domains shown)
# VH: B2 VH with D100G, Q101R, F102D, L103F
# VL: DIQMTQSPSSLSASVGDRVTITCRTSQDIGNYLNWYQQKPGKAPKLLIYYDVNRPSGVPSRFSGSGSGTDFTLTISSLQPEDFATYYCQPSFYFPYTFGQGTKVEIK
# notes: IgG2
# B8: CD40L-187 (antibody, V domains shown)
# VH: B2 VH with D100G, Q101K, F102N, L103F
# VL: DIQMTQSPSSLSASVGDRVTITCRASSSVSYMHWYQQKPGKAPKLLIYHTSRLQSGVPSRFSGSGSGTDFTLTISSLQPEDFATYYCSAFTHNSDVFGQGTKVEIK
# notes: IgG2
# B9: CD40L-189 (antibody, V domains shown)
# VH: B2 VH with Q101K, F102T, L103F
# VL: DIQMTQSPSSLSASVGDRVTITCSGDTLGGKYAWWYQQKPGKAPKLLIYDNTNRPSGVPSRFSGSGSGTDFTLTISSLQPEDFATYYCQAWDNSAVIFGQGTKVEIK
# notes: IgG2
# B10: CD40L-195 (antibody, V domains shown)
# VH: B2 VH with D100G, Q101R, F102L, L103F
# VL: DIQMTQSPSSLSASVGDRVTITCSGDNIGSIYASWYQQKPGKAPKLLIYQNDKRPSGVPSRFSGSGSGTDFTLTISSLQPEDFATYYCQQGYNSNDVDNVFGQGTKVEIK
# notes: IgG2
# B11: CD40L-103 (VHH)
# VHH: EVQLVESGGGLVQPGGSLRLSCAASGRSFSSVYAMGWFRQAPGKEREFIAVIYWRDGSSLYADSVKGRFTISADNSKNTAYLQMNSLKPEDTAVYYCAAEPYGSGSSLISEYDWGQGTLVTVSS
# Target: T1, CD40L over-expressed on Expi293 cells
# Test: flow cytometry, 100 nM antibody, CD40L-Expi293 vs parent Expi293 cells;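 further: ratio is the mean fluorescence intensity on CD40L-overexpressing Expi293 cells divided by the mean fluorescence intensity on parental Expi293 cells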
# Experimental: All incubations and washes were in buffer containing PBS+1% BSA. MFI Ratio is defined by the mean fluorescence intensity (MFI) of the cytokine over-expressing Expi293 cell over the Expi293 parent cell. […] EC50 was calculated in GraphPad Prism.
row,Binder,100 nM FACS (MFI Ratio) [ratio]
1,B1,6.7
2,B2,4.5
3,B3,14.2
4,B4,7.3
5,B5,2.7
6,B6,6.9
7,B7,3.6
8,B8,2.3
9,B9,4.7
10,B10,16.8
11,B11,3.6
